# Source: patent US20260226125A1 (MEDICENNA THERAPEUTICS, published 2026)
# Positions count from the first letter of the chain named. Names may count otherwise.
# T1: human CD25 (IL-2Rα) (human, UniProt P01589 22-240, limits assumed)
# T1 construct: Receptor reagent used in SPR; also called interleukin 2 receptor alpha
# T1 sequence (looked up): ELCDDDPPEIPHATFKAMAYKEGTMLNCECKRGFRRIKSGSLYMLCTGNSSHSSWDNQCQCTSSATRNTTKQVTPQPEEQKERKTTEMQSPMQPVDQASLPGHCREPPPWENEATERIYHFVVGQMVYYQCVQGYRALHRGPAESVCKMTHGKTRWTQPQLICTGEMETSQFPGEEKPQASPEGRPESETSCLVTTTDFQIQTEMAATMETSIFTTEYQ
# T2: human CD122 (IL-2Rβ) (human, UniProt P14784 27-240)
# T2 construct: Receptor reagent used in SPR; also called interleukin 2 receptor beta
# T2 sequence (looked up): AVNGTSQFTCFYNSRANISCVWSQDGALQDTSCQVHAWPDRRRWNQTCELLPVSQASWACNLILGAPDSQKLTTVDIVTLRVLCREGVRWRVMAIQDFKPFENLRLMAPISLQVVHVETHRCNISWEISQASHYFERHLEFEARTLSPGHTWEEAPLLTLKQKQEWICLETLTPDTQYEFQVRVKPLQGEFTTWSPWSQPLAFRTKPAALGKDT
# T3: γc (CD132, IL-2Rγ, common gamma chain) (human, UniProt P31785 23-369)
# T3 sequence (looked up): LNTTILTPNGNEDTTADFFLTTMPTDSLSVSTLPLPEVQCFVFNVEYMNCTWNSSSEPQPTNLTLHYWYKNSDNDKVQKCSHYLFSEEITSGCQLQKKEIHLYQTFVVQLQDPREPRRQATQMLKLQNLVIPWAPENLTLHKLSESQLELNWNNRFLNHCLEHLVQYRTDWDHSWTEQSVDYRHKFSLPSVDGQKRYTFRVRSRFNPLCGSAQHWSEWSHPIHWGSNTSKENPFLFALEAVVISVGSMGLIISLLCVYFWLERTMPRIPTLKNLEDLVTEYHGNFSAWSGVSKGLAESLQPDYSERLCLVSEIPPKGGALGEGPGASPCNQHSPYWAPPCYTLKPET
# T4: high affinity IL-2 receptor (human IL-2Rα, IL-2Rβ, IL-2Rγ) on HEK-Blue IL-2 reporter cells (human, UniProt P01589 22-272; P14784 27-551; P31785 23-369)
# T4 sequence (looked up) 1: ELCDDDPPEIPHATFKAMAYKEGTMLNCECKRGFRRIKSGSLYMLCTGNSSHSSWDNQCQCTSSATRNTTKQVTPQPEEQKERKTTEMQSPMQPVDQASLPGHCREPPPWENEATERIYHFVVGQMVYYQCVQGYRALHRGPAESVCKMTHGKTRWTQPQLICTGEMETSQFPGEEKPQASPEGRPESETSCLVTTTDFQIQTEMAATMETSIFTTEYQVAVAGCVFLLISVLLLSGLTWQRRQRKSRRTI
# T4 sequence (looked up) 2: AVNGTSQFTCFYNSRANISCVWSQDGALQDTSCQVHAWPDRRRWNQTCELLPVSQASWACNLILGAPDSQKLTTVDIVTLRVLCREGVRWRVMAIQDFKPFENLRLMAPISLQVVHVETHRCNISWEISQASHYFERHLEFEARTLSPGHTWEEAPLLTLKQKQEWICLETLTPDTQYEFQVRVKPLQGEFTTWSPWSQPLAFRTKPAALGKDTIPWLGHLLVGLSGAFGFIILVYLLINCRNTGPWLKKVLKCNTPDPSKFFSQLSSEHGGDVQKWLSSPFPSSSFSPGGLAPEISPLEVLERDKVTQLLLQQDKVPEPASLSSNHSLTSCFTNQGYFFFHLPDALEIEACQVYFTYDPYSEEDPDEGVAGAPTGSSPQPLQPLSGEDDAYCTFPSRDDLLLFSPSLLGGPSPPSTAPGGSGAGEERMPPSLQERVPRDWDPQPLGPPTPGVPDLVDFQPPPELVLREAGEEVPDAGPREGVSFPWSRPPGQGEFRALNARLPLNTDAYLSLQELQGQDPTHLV
# T4 sequence (looked up) 3: T3 sequence (looked up)
# B1: MDNA209FA-Fc (2:1) (Fc fusion)
# chain: APTSSSTKKTQLQLEHLRLDLEMILNGINNYKNPKLTRMLTAKFYMPKKATELKHLQCLEEELKPLEEVLNLAQSKNFHFDPRDVVSNINVFVLELKGSETTFMCEYADETATIVEFLNRWITFCTSIIRTLT
# notes: MDNA209 plus F42A, fused to Fc; also called TP40451F; not shown: linker (if any) and Fc region
# B2: MDNA209(3)FEAA-Fc (2:1) (Fc fusion)
# chain: B1 chain with E62A, R130S
# notes: MDNA209(3) (no S130R) plus F42A, E62A, fused to Fc; also called TP36872F; not shown: linker (if any) and Fc region
# B3: MDNA209-Fc (2:1) (Fc fusion)
# chain: B1 chain with A42F
# notes: IL-2 mutein MDNA209 (L18R, Q22E, L80F, R81D, L85V, I86V, I92F, Q126T, S130R) fused to Fc; (2:1) read as two muteins per Fc dimer; order from the name; also called MDNA209 (2:1) Fc; Construct #8; not shown: linker (if any) and Fc region
# B4: MDNA209FEAA-Fc-A11 (2:1:2) (Fc fusion)
# chain: B1 chain with E62A
# notes: Bispecific format: IL-2 antagonist mutein with FEAA, Fc, and IL-13 mutein A11; also called Construct #10; not shown: linker (if any), Fc, linker and IL-13 mutein A11
# B5: MDNA209(3)FA-Fc (Fc fusion)
# chain: B1 chain with R130S
# notes: MDNA209(3) plus F42A fused to Fc, made in CHO; not shown: linker (if any) and Fc region
# B6: MDNA209FEAA-Fc (2:1) (Fc fusion)
# chain: B1 chain with E62A
# notes: MDNA209 plus F42A, E62A, fused to Fc; also called MDN209FEAA-Fc; TP36871F; not shown: linker (if any) and Fc region
# B7: MDNA209FEAA (free) (ligand)
# chain: B1 chain with E62A
# B8: MDNA209 (free) (ligand)
# chain: B1 chain with A42F
# B9: MDNA209(3)-Fc (Fc fusion)
# chain: B1 chain with A42F, R130S
# notes: MDNA209(3) (L18R, Q22E, L80F, R81D, L85V, I86V, I92F, Q126T) fused to Fc, made in CHO; not shown: linker (if any) and Fc region
# B10: MDNA209FEY-Fc (2:1) (Fc fusion)
# chain: B1 chain with Y45A
# notes: MDNA209 plus F42A, Y45A, fused to Fc; also called TP40452F; not shown: linker (if any) and Fc region
# Experiments:
# human CD25 (IL-2Rα) [1] = target: T1, human CD25 (IL-2Rα); assay: SPR, drawn table 'Individual Receptor Subunit Binding', column 'Affinity for IL-2Rα Kd (nM)'
# human CD122 (IL-2Rβ) [2] = target: T2, human CD122 (IL-2Rβ); assay: SPR, drawn table 'Individual Receptor Subunit Binding', column 'Affinity for IL-2Rβ Kd (nM)'
# human CD25 (IL-2Rα) [3] = target: T1, human CD25 (IL-2Rα); assay: SPR sensorgram, legend 0.195 to 50 nM
# Method: (§1) Binding interactions between proteins using purified preparations or complex mixtures can be examined quantitatively in their native state and can assess binding specificity, stoichiometry, concentration, thermodynamics, kinetics (association, kₐ, and dissociation, kd, rate constants), and overall affinity (equilibrium dissociation constant, KD=kd/kₐ). Sensor chips (CM5) were activated (420 s at a flow rate of 10 μL/min) and 50 μg/mL of Anti-histidine antibody (in Immobilization buffer 10 mM Sodium Acetate (pH4.5)) was injected (420 s at a flow rate of 10 μL/min). For ligand capturing, samples were diluted to 5 μg/mL (HEPES, with 0.005% Tween-20, ph7.4) and injected (flow rate of 10 μL/min) to reach a capture level of ~200 RU. Receptors were diluted and up to 8 concentrations as indicated and injected (flow rate of 30 μL/min) for an association phase of 120 seconds, followed by 300 seconds dissociation.
# human CD122 (IL-2Rβ) [4] = target: T2, human CD122 (IL-2Rβ); assay: SPR; 1:1 binding fit
# Method: as §1
# human CD25 (IL-2Rα) [5] = target: T1, human CD25 (IL-2Rα); assay: SPR sensorgram, series 62.5 to 1.953 nM
# Method: as §1
# [6] = target: T3, γc (CD132, IL-2Rγ, common gamma chain); assay: cell-based or functional assay
# [7] = target: T4, high affinity IL-2 receptor (human …); assay: cell-based or functional assay
# human CD25 (IL-2Rα) [8] = target: T1, human CD25 (IL-2Rα); assay: SPR; steady state affinity
# Method: as §1
# human CD122 (IL-2Rβ) [9] = target: T2, human CD122 (IL-2Rβ); assay: SPR; 1:1 binding fit; remark: listed apart in the source
# human CD25 (IL-2Rα) [10] = target: T1, human CD25 (IL-2Rα); assay: SPR; steady state affinity; remark: listed apart in the source
# [11] = target: T3, γc (CD132, IL-2Rγ, common gamma chain); assay: cell-based or functional assay; remark: listed apart in the source
# human CD25 (IL-2Rα) [12] = target: T1, human CD25 (IL-2Rα); assay: SPR sensorgram, no concentration legend
# human CD25 (IL-2Rα) [13] = target: T1, human CD25 (IL-2Rα); assay: SPR; 1:1 binding fit
molecule,measurement,setting,value
MDNA109-Fc (Fc fusion),Kd,human CD25 (IL-2Rα) [1],14 nM
same,Kd,human CD122 (IL-2Rβ) [2],2.7 nM
B1,binding result,human CD25 (IL-2Rα) [3],no binding (tested: 50 nM)
same,Kd,human CD122 (IL-2Rβ) [4],5.51 nM
B2,binding result,human CD25 (IL-2Rα) [5],no binding (tested: 62.5 nM)
same,"fold decrease in agonist activity, HEK-Blue IL-2 reporter assay",[6],~60 fold
same,Kd,human CD122 (IL-2Rβ) [4],3.75 nM
B3,"Fold against IL-2-Fc alone, HEK-Blue IL-2 reporter assay, antagonist format",[7],15.1 fold
same,"fold decrease in Fold against hIL-2, HEK-Blue IL-2 reporter assay, fixed agonist format",[7],210 fold
same,Kd,human CD25 (IL-2Rα) [8],39.1 nM
same,Kd,human CD122 (IL-2Rβ) [4],3.91 nM
B4,binding result,human CD25 (IL-2Rα) [5],no binding (tested: 62.5 nM)
same,Kd,human CD122 (IL-2Rβ) [4],4.59 nM
B5,Kd,human CD122 (IL-2Rβ) [9],3.79 nM
same,Kd,human CD25 (IL-2Rα) [10],4610 nM
B6,binding result,human CD25 (IL-2Rα) [5],no binding (tested: 62.5 nM)
same,"EC50 (agonist activity), HEK-Blue IL-2 reporter assay",[11],> 107 nM
same,"Fold against hIL-2 (agonist activity), HEK-Blue IL-2 reporter assay",[11],~2800 fold
same,Kd,human CD122 (IL-2Rβ) [4],4.94 nM
B7,Kd,human CD122 (IL-2Rβ) [9],1.59 nM
same,binding result,human CD25 (IL-2Rα) [12],no binding
B8,Kd,human CD25 (IL-2Rα) [13],31.3 nM
same,Kd,human CD122 (IL-2Rβ) [9],0.537 nM
B9,Kd,human CD25 (IL-2Rα) [13],35.8 nM
same,Kd,human CD122 (IL-2Rβ) [9],3.25 nM
B10,binding result,human CD25 (IL-2Rα) [3],no binding (tested: 50 nM)
same,Kd,human CD122 (IL-2Rβ) [4],4.99 nM
